Data on one protein can be found in patent publication US20070031956A1 (VERTEX PHARMACEUTICALS, published 2007).

The data set concerns the molecule itself. The data set is described as follows: analytical ultracentrifugation (sedimentation velocity), monomer-dimer self-association. Here is the method: All sedimentation velocity experiments were performed with the Beckman Coulter Optima XL-I using an An60 Ti rotor and charcoal-filled Epon double-sector cells. […] Experiments were performed at 42,000 rpm for 8 h at 20° C. Radial absorbance scans were collected in continuous scan mode at 280 nm every 10 min at a spacing of 0.001 cm.

B1: Full-length human Pim-1 kinase (residues M1-K313) with N-terminal HexaHis tag and thrombin cleavage site (enzyme)
chain: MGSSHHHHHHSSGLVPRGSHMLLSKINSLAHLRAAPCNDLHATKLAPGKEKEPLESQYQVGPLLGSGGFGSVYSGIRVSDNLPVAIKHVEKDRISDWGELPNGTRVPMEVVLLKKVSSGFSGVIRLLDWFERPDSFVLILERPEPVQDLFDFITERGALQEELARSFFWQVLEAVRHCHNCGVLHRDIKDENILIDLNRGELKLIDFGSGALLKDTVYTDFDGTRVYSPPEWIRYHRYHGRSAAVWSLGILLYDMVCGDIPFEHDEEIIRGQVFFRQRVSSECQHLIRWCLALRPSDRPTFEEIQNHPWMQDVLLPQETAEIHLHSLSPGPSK
modifications: heterogeneous phosphorylation (mixture of species with 0-5 phosphoryl groups): extensively phosphorylated in the HexaHis tag region; Ser261 major site in Pools III and IV; minor sites Ser8, Thr23 and Ser98
notes: Expressed in E. coli and purified by TALON, Superdex 200 and MonoQ; also called Pim-1 protein
B1: binding was characterised by a dissociation constant (Kd) of 23 µM and the “monomer:dimer ratio (dimer share)” value was 20.
